In the DeepSol protein solubility set:

Assay: soluble on expression in E. coli; label from the status in PepcDB or PDB records

Row | Sequence | soluble on expression in E. coli
1 | MGSDKIHHHHHHMVKIMQYINKSKEEFLSEIYRIVAKIRLELELTTSEITISDFEFKMDSENSKNLILMIYTPTRTDKSLLIGPGGWVVGKLREKLNGSFKENLIIRVESYIDRKKELDAIENSISHLREKGLDISSKKDALVIIQCEYDLSSIDFINEYFNPIFITFDLGTALLPHKNRNRIEQVFKDKNLKYEFLSPYSLNGEQITDAISKNPCETICNNLISEMVNYAKNKNIEIVLFNHLNKDYEFRNGIHILNFLKMFPIKLNSLIHKGRSLDCPLLIQSCKRNKITKTFKIKQIVSGVYSGLVEPTEGAEEIIKYLK | not soluble
2 | MSKPDDPAYHWNGAELDLDAYLARIGFAGERAPTLATLRELVYRHTTAIPFENLEAVLGRPVRLDLATLQDKLVHSRRGGYCYENAGLFAAALERLGFGVTGHTGRVTMGAGGLRPATHALLRVTTADDDRVWMCDVGFGRGPLRPYELRPQPDEFTLGDWRFRLERRTGELGTDLWVLHQFGRDGWVDRYTFTTAPQYRIDFEVGNHFVSTSPRSPFTTRPFLQRFHSDRHHVLDGLTLITERPDGSADIRALTPGELPEVINELFDIELPGPDLDALTTGSWLERVAAGTP | soluble
3 | MNNFTMPDKKYFLFAARRADDQLILVVPKSGERFLMNEELLRRDYNVQLGDFLHCKINRSKELYDISKTKHTANISTVVNGDEAIIENLRADLVSSDELLLFQSQLFDDIRCWQSDQPIGRYYIKMRLFPTSREMSGRMIHYEVVKITGSVKSIELNKQQGNFQQNIDSGYSAASEKTESSAGFSQSPAAGLPSPQNLIYPAGSKKIVSQQGTQVVGPGCPLVKKEETPANKIMGTGFPKSTKREENVFGSELLQQKKNNEKPGSTVGKGFTTSQTIGEKQRAVVTSIDAKRPGTYYLWNLDSKTEGLLKSTTPLELGHQFAGIFVNQENGKCFCKEYIGEIERVLEGKVNDTNKVNLTVKLLDFQPAGVNRRRASGTAKYIGDVLEGNTEDTKLTIECIGKKVNIERRKFGEKDFVWMVTEIRNCSQYDQKIF | not soluble
4 | MSLSDDSTFGDATFVVLDFETTGLDPQVDEIIEIGAVKIQGGQIVDEYHTLIKPSREISRKSSEITGITQEMLENKRSIEEVLPEFLGFLEDSIIVAHNANFDYRFLRLWIKKVMGLDWERPYIDTLALAKSLLKLRSYSLDSVVEKLGLGPFRHHRALDDARVTAQVFLRFVEMMKKEGHHHHHH | soluble
5 | MIIVKNHKFKLDLLQNEANKEKFEGNTACSTAAYTLVREDASTGLTYTADISKVGNQISGEPAQRIKIREHRRIPKFDLPNLKVSKVYKLPLEASYAKGLLLLLIFCFGLSGCNTSKRLPYSHKYSYKELSKDDPHNLTYKGHYKVGKNYKIKGKTYKPHNPKSFTETGYASWYGGLKDGFHGKKTANGDRFNRNLLTAAHKTLPLPCLVKVTNKANNKAVILMVNDRGPFKKNRIIDVSQRAAEILAFKNQGITKVKIEYLPNETEKFLKNINLKKPQSKTLAKNSKKSSSNKVTNNNKCSVNCHIKLINLKYKLAVTP | soluble
6 | MSLDVEDTVKKLNLKFRNIEGERLILAITCDENKNVLMVAFMNEEALKKTLETGYMHYYSTSRKKLWRKGEESGNVQKLIKFYRDCDGDALLFIVEQKGVACHEGYYSCFHYKIEDGELKITGEYYSKREGHHHHHH | soluble
7 | MSKVRVAGFSVSVDGFGAGPEQSLNDPLGKRGPEMFQWFFHTRTFRAMMGKDDGSTGIDEDYASRAMANFGAFILGRNMFGPIRGEWPDDAWKGWWGPNPPYHAPTYVLTHYPREPLVMEGGTTFHFVTGGIHQALDQAKAAAGDKDVKIGGGVATVRQYLQAGLIDELHFAVSPVVLGKGEAMFAGIDLPALDFRVTEHAASEKATHIVLAKLEHHHHHH | not soluble
8 | MGSDKIHHHHHHMNAPLSHSRPMMQPSEDKSLATVFPFAGRVLDETPMLLGEGPTFDPASGTAWWFNILERELHELHLASGRKTVHALPFMGSALAKISDSKQLIASDDGLFLRDTATGVLTLHAELESDLPGNRSNDGRMHPSGALWIGTMGRKAETGAGSIYHVAKGKVTKLFADISIPNSICFSPDGTTGYFVDTKVNRLMRVPLDARTGLPTGKAEVFIDSTGIKGGMDGSVCDAEGHIWNARWGEGAVDRYDTDGNHIARYEVPGKQTTCPAFIGPDASRLLVTSAREHLDDDAITANPQHGLTFELGIEVKGRFEPLYRL | soluble
9 | MSITIFNRDLKEIYYEKQYKNGQLKFLYNTILGRMLLKLFISTRLFSKINAIFNNNKGSIKKIEPFINEYKIDMSEYEKKEYTSFDDFFTRKILEGKRSFSKEKSHLISPADSKLMVYEIDDDLKMNIKNSIYTVGELLNDEKLSREYKNGTCLIFRLTVDDYHRYCFIDDGSLKYRKVINGRLHTVGPISSKRYKVYSENNREYSVLKTRNFGKVIQIEVGALLVGKIKNHSIKVFKKGDEKGYFCFGGSTIVLLFKEKVIKMDEDILEYSKAGIETKIKMGEKIGETNDLEHHHHHH | soluble
10 | MSLNKIDMPVLNVKMVPVEKIKSNSYNPNHVAGPEMELLELSILKDGYTQPIVCYCDDKKDEYIIIDGFHRYLIGKSKLDLKELPVVVIDKPLEQRMSSTIRHNRARGKHEIDKMSELVLLLVNEGWDDHKIGKELGMEKEEVLRLKQVTGLKSAFLNHEFSESWDEFVKKNYPKQKDEEGGSHHHHHH | soluble
11 | MNIVEPLRDKDDIQAMKDYLSSWNEKYYMLFLLGINTGFRVGDILKLKVKDVQGWHIKVREQKTGKYKSIKMTRPLKNELREFVKDKELHEYLFQSRVGKNKALSYKTVYWFLKRAAEDLGIDNVGTHTMRKTFGYHYYKKYKNVADLMSLFNHSSPAVTLIYICVRQDELDTKMSNFSL | not soluble
12 | MKIQLDINGTEIQKGVWVGSGAIIEPGAILNPPCVIGDNCRIESGAVIDSLSVIGNNNVIERDSSVKRSVIWDGNYIEYGSKIRGAILCSKTNLKRYVHIFENAIVGDNCLINERVVIKPNIKIWPQKTVEPFAIVDRNIIWGSKLEHHHHHH | not soluble
13 | MPNYRGRHQTRQNWSSKPREEHSPSKGAYRDKIWSGPVSEVARQQTVYDWVTTGAYSLGSPDSWPSYPDEIILMNESRNAQTSRMSRRSATPGPRLSQDRRTRTTAPAVAPIPFQRAQPRVEVERQRIDEPVAQDLIIDDGNGTNNSNDSSICGFVEESEELVYPQWVYYLYPLIPTAPNCNNEKSYKEGGNWYNSP | not soluble
14 | PNIEFFTLKTPDGSELDSVQVTGEDEEKKPMGERKFIITCIARDQNFINWIKDLNYTAKNLGATAISFNYRGVDYSRGLVWTENNLVDDILAQVQRLISLGADPKNICLDGMCIGGAVATIAAAKLHEKG | not soluble
15 | MAATVRNLPALFRGLHSKEVCQKMSFSVSAAAKSEILVDTHGSKKVVTLNRPKALNALNLEMVREFYPKLQAWNSSSDVDLVILKGSGDKAFCAGGDVLAVVRSFKDSESGKECTMHKDFFREEYILNHLIGTLNKQYVCLIDGIVMGGGCGLSVNGRFRVATEKTMLAMPETALGLFPDVGGSYFLSRLKGNLGMYLALTGYRLLGADAFHAGLATHFVESSELAKLEKELVNIKDVTENSVDEVIRSFEPKKIPEFSLSKNLAQIRDSFKAKSVEEILASLEKDGSDWAKKQAATLGKMSPTSLKVTHRQITEGSKMSYAKIFTMEYRLTQRFLADKDFHEGCRAILVDKDRKPKWNPATLADVKDSVVDNYFSPLPNNSDLKL | not soluble
16 | MSDKPHRIVIVGGGAGGLELATALGNKYGKSDAVRVTLVDRSRTHIWKPLLHAIAAGSLRRSQHELNYLAQAHWHGFHYRLGEMNGLDRARKVIKLAPVIDDEGREINPESELAYDTLVIAIGSVTNDFGTPGARDHAVPLETPEQASRFNKRMVNACLRAQHQHAPIEPGQLHVAIIGAGATGTELAAELHHTAREIIAYGLDKIDPEHDLKIVLIEAAPRILPALPPRISDATLKLLLDLGVEVRTGARVAEVLDHAVRLADGEVIPSELVVWAAGVRAPDFLEGIDGLDTNRINQLVVRPTLQTTRDDNVFGMGDCAACAIPGYENGVPPRAQAAHQEAEFMLEQIEKRLKGEPLGEFRYRDLGSLVSLGKYSAVGNLMGSLVGKSFLIEGYFARFMYRSLYKMHEAALYGRGRTLLSVLSGSTRPTPTVKLHLEHHHHHH | not soluble
